The target of data set [1] is T1, C.Esp1396I controller protein (plasmid pEsp1396I (type II RM system …, UniProt Q8GGH0 1-79)).
T1 sequence: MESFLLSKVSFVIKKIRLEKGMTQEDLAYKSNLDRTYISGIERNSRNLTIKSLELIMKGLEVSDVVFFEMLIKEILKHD
Nature of the data set: X-ray crystallography; dimer bound at OL via HTH, OR half unbound; 10 mM spermidine, protein:DNA 2:1; Crystallization by vapour diffusion: 19OR 0.1 M PCB buffer pH 5.0, 25% PEG 3350, 10 mM spermidine (microseeded); 25OL 0.1 M PCB pH 4.0, 20% PEG 1500, 10 mM spermidine; temperature not stated. As to conditions: protein: recombinant; tags: N-terminal His6 removed with thrombin; chain copies: 2; (called 25 bp, but printed strand has 24 nt).

Data set [2] deals with the molecule itself. Nature of the data set: crystal structure; co-crystal of C.Esp1396I with the 19 bp OR DNA duplex (19OR), protein:DNA 1:1, 0.1 M PCB buffer pH 5.0, 25% PEG 3350, 10 mM spermidine, microseeding; 3.0 Å, space group C2.

B1: 25OL (dsDNA)
DNA 1: ATGTGACTTATAGTCGTGTGATTA
DNA 2: TAATCACACGACTATAAGTCACAT
With B1, in data set [1], the binding result is reported as “binds”.

B2: controller protein C.Esp1396I (natural protein)
chain: T1 sequence
notes: controller protein (C-protein) of the plasmid-borne type II restriction-modification system Esp1396I; 'native C.Esp1396I'; Homodimer; The His tag was removed with thrombin before crystallisation; In both crystals the dimer stands together with a DNA duplex (19 bp OR or 25 bp OL plus half of OR); also called C-protein; not shown: His6, N-terminal, cleaved
In the case of B2, in data set [2], the binding result is listed as “binds”.

Source of the values: publication PMC3758141, “Structural analysis of DNA–protein complexes regulating the restriction–modification system Esp1396I” (Acta Crystallographica Section F: Structural Biology and …, 2013).
